First the molecules themselves.
B1: His-Sac1 residues 1–188 (domain or fragment, human, UniProt Q9NTJ5 1-188, looked up)
chain: MATAAYEQLKLHITPEKFYVEACDDGADDVLTIDRVSTEVTLAVKKDVPPSAVTRPIFGILGTIHLVAGNYLIVITKKIKVGEFFSHVVWKATDFDVLSYKKTMLHLTDIQLQDNKTFLAMLNHVLNVDGFYFSTTYDLTHTLQRLSNTSPEFQEMSLLERADQRFVWNGHLLRELSAQPEVHRFALP

The target of assay [1] is T1, GST-FAPP1 full length (four-phosphate-adaptor-protein-1) (human, UniProt Q9HB20 1-300).
T1 sequence (looked up): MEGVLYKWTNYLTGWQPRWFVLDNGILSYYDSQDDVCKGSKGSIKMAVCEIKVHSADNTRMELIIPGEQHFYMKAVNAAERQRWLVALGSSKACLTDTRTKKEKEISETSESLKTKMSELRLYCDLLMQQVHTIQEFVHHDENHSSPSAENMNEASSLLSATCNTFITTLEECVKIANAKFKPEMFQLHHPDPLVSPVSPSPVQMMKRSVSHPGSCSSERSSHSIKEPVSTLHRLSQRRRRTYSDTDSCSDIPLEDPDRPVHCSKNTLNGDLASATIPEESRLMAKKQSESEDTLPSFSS
The assay is described as follows: pull-down.

Assay [2] addresses B1. The assay is described as follows: pull-down.

For B1, the binding result in assay [1] is on record as “binds”.

B2: GST-FAPP1 residues 1–100 (domain or fragment, human, UniProt Q9HB20 1-100, looked up)
chain: MEGVLYKWTNYLTGWQPRWFVLDNGILSYYDSQDDVCKGSKGSIKMAVCEIKVHSADNTRMELIIPGEQHFYMKAVNAAERQRWLVALGSSKACLTDTRT
For B2, in assay [2], the binding result is recorded as “binds”.

For the origin of these results see PMC6400556 (The Journal of Cell Biology, 2019).
